From US20160000910A1

Legend:
[1] = target: Aβ1-42 peptide fraction enriched in oligomers (high molecular weight fraction from SEC); assay: ELISA on coated fraction; antibody dilution 1:4 (starting dilution 0.5 µg/ml); assay 1
[2] = target: Aβ1-42 peptide fraction consisting primarily of monomers (LMW monomer fraction from SEC); assay: ELISA on coated fraction; antibody dilution 1:16 (starting dilution 0.5 µg/ml); mean of 3 assays
[3] = target: Aβ1-42 peptide fraction enriched in oligomers (high molecular weight fraction from SEC); assay: as above
[4] = target: Aβ1-42 peptide fraction consisting primarily of monomers (LMW monomer fraction from SEC); assay: ELISA on coated fraction; antibody dilution 1:64 (starting dilution 0.5 µg/ml); assay 3
[5] = target: Aβ1-42 peptide fraction enriched in oligomers (high molecular weight fraction from SEC); assay: as above
[6] = target: Aβ1-42 peptide fraction enriched in oligomers (high molecular weight fraction from SEC); assay: ELISA on coated fraction; antibody dilution 1:8 (starting dilution 0.5 µg/ml); assay 2
[7] = target: Aβ1-42 peptide fraction enriched in oligomers (high molecular weight fraction from SEC); assay: ELISA on coated fraction; antibody dilution 1:8 (starting dilution 0.5 µg/ml); assay 3
[8] = target: Aβ1-42 peptide fraction consisting primarily of monomers (LMW monomer fraction from SEC); assay: ELISA on coated fraction; antibody dilution 1:32 (starting dilution 0.5 µg/ml); mean of 3 assays
[9] = target: Aβ1-42 peptide fraction enriched in oligomers (high molecular weight fraction from SEC); assay: as above
[10] = target: Aβ1-42 peptide fraction enriched in oligomers (high molecular weight fraction from SEC); assay: ELISA on coated fraction; antibody dilution 1:32 (starting dilution 0.5 µg/ml); assay 3
[11] = target: Aβ1-42 peptide fraction consisting primarily of monomers (LMW monomer fraction from SEC); assay: ELISA on coated fraction; antibody dilution 1:2 (starting dilution 0.5 µg/ml); mean of 3 assays
[12] = target: Aβ1-42 peptide fraction enriched in oligomers (high molecular weight fraction from SEC); assay: as above
[13] = target: Aβ1-42 peptide fraction consisting primarily of monomers (LMW monomer fraction from SEC); assay: ELISA on coated fraction; antibody dilution 1:16 (starting dilution 0.5 µg/ml); assay 2
[14] = target: Aβ1-42 peptide fraction enriched in oligomers (high molecular weight fraction from SEC); assay: as above
[15] = target: Aβ1-42 peptide fraction consisting primarily of monomers (LMW monomer fraction from SEC); assay: ELISA on coated fraction; antibody dilution 1:1 (starting dilution 0.5 µg/ml); assay 3
[16] = target: Aβ1-42 peptide fraction enriched in oligomers (high molecular weight fraction from SEC); assay: as above
[17] = target: Aβ1-42 peptide fraction consisting primarily of monomers (LMW monomer fraction from SEC); assay: ELISA on coated fraction; antibody dilution 1:64 (starting dilution 0.5 µg/ml); assay 2
[18] = target: Aβ1-42 peptide fraction enriched in oligomers (high molecular weight fraction from SEC); assay: as above
[19] = target: Aβ1-42 peptide fraction consisting primarily of monomers (LMW monomer fraction from SEC); assay: ELISA on coated fraction; antibody dilution 1:4 (starting dilution 0.5 µg/ml); assay 3
[20] = target: Aβ1-42 peptide fraction enriched in oligomers (high molecular weight fraction from SEC); assay: as above
[21] = target: Aβ1-42 peptide fraction consisting primarily of monomers (LMW monomer fraction from SEC); assay: ELISA on coated fraction; antibody dilution 1:64 (starting dilution 0.5 µg/ml); mean of 3 assays
[22] = target: Aβ1-42 peptide fraction enriched in oligomers (high molecular weight fraction from SEC); assay: as above
[23] = target: Aβ1-42 peptide fraction consisting primarily of monomers (LMW monomer fraction from SEC); assay: ELISA on coated fraction; antibody dilution 1:16 (starting dilution 0.5 µg/ml); assay 1
[24] = target: Aβ1-42 peptide fraction enriched in oligomers (high molecular weight fraction from SEC); assay: as above
[25] = target: Aβ1-42 peptide fraction consisting primarily of monomers (LMW monomer fraction from SEC); assay: ELISA on coated fraction; antibody dilution 1:32 (starting dilution 0.5 µg/ml); assay 2
[26] = target: Aβ1-42 peptide fraction enriched in oligomers (high molecular weight fraction from SEC); assay: as above
[27] = target: Aβ1-42 peptide fraction consisting primarily of monomers (LMW monomer fraction from SEC); assay: ELISA on coated fraction; antibody dilution 1:4 (starting dilution 0.5 µg/ml); assay 2
[28] = target: Aβ1-42 peptide fraction enriched in oligomers (high molecular weight fraction from SEC); assay: as above
[29] = target: Aβ1-42 peptide fraction consisting primarily of monomers (LMW monomer fraction from SEC); assay: ELISA on coated fraction; antibody dilution 1:128 (starting dilution 0.5 µg/ml); mean of 3 assays
[30] = target: Aβ1-42 peptide fraction enriched in oligomers (high molecular weight fraction from SEC); assay: as above
[31] = target: Aβ1-42 peptide fraction consisting primarily of monomers (LMW monomer fraction from SEC); assay: ELISA on coated fraction; antibody dilution 1:1 (starting dilution 0.5 µg/ml); mean of 3 assays
[32] = target: Aβ1-42 peptide fraction enriched in oligomers (high molecular weight fraction from SEC); assay: as above

Which O.D. (O.D. at 405 nm) [1] does the source give for control antibody 6E10 here?
Its O.D. (O.D. at 405 nm) is 3.1.

What about the O.D. (mean) (O.D. at 405 nm) [2] of the same substance?
Its O.D. (mean) (O.D. at 405 nm) is 1.98.

What about the O.D. (mean) (O.D. at 405 nm) [3] of the same substance?
The O.D. (mean) (O.D. at 405 nm) was 1.92.

And the O.D. (O.D. at 405 nm) [4]?
The O.D. (O.D. at 405 nm) was 1.08.

And the O.D. (O.D. at 405 nm) [5]?
Its O.D. (O.D. at 405 nm) is 0.95.

What about the O.D. (O.D. at 405 nm) [6] of the same substance?
Its O.D. (O.D. at 405 nm) is 2.99.

And the O.D. (O.D. at 405 nm) [7]?
Its O.D. (O.D. at 405 nm) is 3.23.

What about the O.D. (mean) (O.D. at 405 nm) [8] of the same substance?
Its O.D. (mean) (O.D. at 405 nm) is 1.36.

What about the O.D. (mean) (O.D. at 405 nm) [9] of the same substance?
Its O.D. (mean) (O.D. at 405 nm) is 1.32.

And the O.D. (O.D. at 405 nm) [10]?
The O.D. (O.D. at 405 nm) was 1.4.

And the O.D. (mean) (O.D. at 405 nm) [11]?
The O.D. (mean) (O.D. at 405 nm) was 3.59.

What about the O.D. (mean) (O.D. at 405 nm) [12] of the same substance?
The O.D. (mean) (O.D. at 405 nm) was 3.59.

And the O.D. (O.D. at 405 nm) [13]?
Its O.D. (O.D. at 405 nm) is 1.94.

And the O.D. (O.D. at 405 nm) [14]?
Its O.D. (O.D. at 405 nm) is 1.92.

And the O.D. (O.D. at 405 nm) [15]?
Its O.D. (O.D. at 405 nm) is 4.04.

And the O.D. (O.D. at 405 nm) [16]?
The O.D. (O.D. at 405 nm) was 3.89.

What about the O.D. (O.D. at 405 nm) [17] of the same substance?
Its O.D. (O.D. at 405 nm) is 0.94.

What about the O.D. (O.D. at 405 nm) [18] of the same substance?
Its O.D. (O.D. at 405 nm) is 0.88.

What about the O.D. (O.D. at 405 nm) [19] of the same substance?
Its O.D. (O.D. at 405 nm) is 3.52.

And the O.D. (O.D. at 405 nm) [20]?
Its O.D. (O.D. at 405 nm) is 3.64.

What about the O.D. (mean) (O.D. at 405 nm) [21] of the same substance?
Its O.D. (mean) (O.D. at 405 nm) is 0.94.

And the O.D. (mean) (O.D. at 405 nm) [22]?
The O.D. (mean) (O.D. at 405 nm) was 0.92.

What about the O.D. (O.D. at 405 nm) [23] of the same substance?
The O.D. (O.D. at 405 nm) was 1.78.

And the O.D. (O.D. at 405 nm) [24]?
The O.D. (O.D. at 405 nm) was 1.78.

And the O.D. (O.D. at 405 nm) [25]?
Its O.D. (O.D. at 405 nm) is 1.34.

And the O.D. (O.D. at 405 nm) [26]?
Its O.D. (O.D. at 405 nm) is 1.3.

What about the O.D. (O.D. at 405 nm) [27] of the same substance?
Its O.D. (O.D. at 405 nm) is 3.29.

What about the O.D. (O.D. at 405 nm) [28] of the same substance?
The O.D. (O.D. at 405 nm) was 3.37.

What about the O.D. (mean) (O.D. at 405 nm) [29] of the same substance?
The O.D. (mean) (O.D. at 405 nm) was 0.75.

What about the O.D. (mean) (O.D. at 405 nm) [30] of the same substance?
Its O.D. (mean) (O.D. at 405 nm) is 0.63.

And the O.D. (mean) (O.D. at 405 nm) [31]?
Its O.D. (mean) (O.D. at 405 nm) is 3.83.

And the O.D. (mean) (O.D. at 405 nm) [32]?
Its O.D. (mean) (O.D. at 405 nm) is 3.64.
